{"source": "patent US7268216B2", "about": "“Chimeric avidin mutants” (Licentia Oy, priority 2004, dated 2007)", "key": {"[1]": {"test": "Radiobiotin dissociation assay", "type": "binding", "details": "[3H]biotin, various temperatures", "method": "The dissociation rate of [3H]biotin from avidin, AVR4/5 and the avidin mutants was determined as described in (20) at various temperatures. The activation thermodynamic parameters for AVR4/5(C122S) and avidin were determined by analysis of the dependence of the dissociation rate upon temperature using the global fit of all data, as described in (21)."}, "[2]": {"details": "cited from earlier work"}, "Proteinase K [3]": {"system": "Proteinase K", "details": "even without bound biotin; refs (8,32); cited from earlier work"}, "[4]": {"details": "recombinant protein, earlier report; cited from earlier work"}, "[5]": {"test": "Differential scanning calorimetry (DSC), heat denaturation", "type": "physicochemical", "details": "for ΔTm, change in Tm upon addition of a three-fold molar excess of biotin / Tm(+biotin) / ΔH (unfolding enthalpy) / Tm(−biotin): DSC; for Tm(+biotin): biotin 3:1 molar ratio biotin:avidin monomer; for ΔH (unfolding enthalpy): sample without biotin; for Tm(−biotin): without biotin, average ± S.D", "method": "The transition midpoint of the heat denaturation (Tm) of the avidin proteins was studied using a Calorimetry Sciences Corporation (CSC) Nano II differential scanning calorimeter, as in previous reports (22,23). Proteins (˜0.5 mg/ml) were analyzed both in the absence and presence of biotin (3:1 molar ratio; biotin:avidin monomer)."}, "[6]": {"test": "Microplate assay: remaining biotin-binding activity after heat treatment", "type": "physicochemical", "details": "50 mM phosphate buffer, 100 mM NaCl, pH 7.0", "method": "The inactivation of the proteins during heat-treatment was analysed by using a microplate assay (23). The proteins were heated to 99.9° C. in 50 mM phosphate buffer containing 100 mM NaCl (pH 7.0) for 32 minutes. The remaining activity was probed by measuring the ability of the proteins to bind biotinylated alkaline phosphatase by coating the microplate wells with samples of the heated proteins."}, "Proteinase K [7]": {"system": "Proteinase K", "test": "Proteinase K assay (proteolytic resistance, SDS-PAGE)", "type": "physicochemical", "details": "for state after incubation with Proteinase K: 16 hours, in the presence or absence of biotin", "method": "The proteolytic resistance of the proteins were studied using proteolysis by Proteinase K, as previously described (7). Protein sample (4 μg) was incubated in the presence of Proteinase K ( 1/25 w/w) at 37° C. for a predetermined time period, denatured by boiling in sample buffer (SDS, 2-mercaptoethanol) and subjected to SDS-PAGE followed by coomassie staining."}, "[8]": {"test": "IAsys optical biosensor (SPR), 2-iminobiotin binding", "details": "2-iminobiotin surface, 20° C., 50 mM borate buffer pH 9.5, 1 M NaCl", "method": "The biotin-binding characteristics of the different avidins were studied by a surface plasmon resonance (SPR) optical biosensor (IAsys). The binding affinities to the 2-iminobiotin surface in 50 mM borate buffer (pH 9.5, 1 M NaCl) were measured as previously reported (7)."}, "[9]": {"test": "Fluorescent biotin dissociation assay", "type": "binding", "method": "The binding of labelled biotin to avidins was analysed by a method based on the quenching of a biotin-coupled fluorescent probe ArcDia BF560 (ArcDia Ltd., Turku, Finland) due to binding to avidin, as previously described (18). The measurements were performed using a PerkinElmer LS55 luminometer with thermostated cuvette (25 or 50° C.). The signal measured for 3600 sec (25° C.) or 2400 sec (50° C.) was used to determine the dissociation rate constant."}}, "note": "Read-outs that look alike come from different tables or passages of the source. Marks after values point to notes of the source that are not given here."}
{"molecule": "AVR4/5: Avidin-related protein encoded identically by chicken genes AVR4 and AVR5 (protein, UniProt P56734 25-150, looked up) Avidin-related protein 4/5: ARKCSLTGKWTNNLGSIMTIRAVNSRGEFTGTYLTAVADNPGNITLSPLLGIQHKRASQPTFGFTVHWNFSESTTVFTGQCFIDRNGKEVLKTMWLLRSSVNDISYDWKATRVGYNNFTRLCTVEE", "values": [{"measurement": "biotin binding / dissociation rate in radiobiotin dissociation assay", "setting": "[1]", "result": "almost as tightly as avidin"}, {"measurement": "Tm, transition midpoint of heat denaturation", "setting": "[2]; from ref (8)", "result": 106.4, "unit": "°C"}, {"measurement": "resistance to cleavage by Proteinase K", "setting": "Proteinase K [3]", "result": "resistant to cleavage"}, {"measurement": "biotin binding", "setting": "[4]", "result": "almost as tightly as avidin"}]}
{"molecule": "ChiAVD: Chimeric avidin: residues 38-58 moved from AVR4/5 to avidin (SEQ ID NO:15) (protein, listed as Gallus gallus) MVHATSPLLLLLLLSLALVAPGLSARKCSLTGKWTNDLGSNMTIGAVNSRGEFTGTYITAVADNPGNITLSPLLGIQHKRASQPTFGFTVNWKFSESTTVFTGQCFIDRNGKEVLKTMWLLRSSVNDIGDDWKATRVGINIFTRLRTQKE", "values": [{"measurement": "Tm, transition midpoint of heat denaturation", "setting": "[5]", "result": 96.5, "unit": "°C"}, {"measurement": "ΔTm, change in Tm upon addition of a three-fold molar excess of biotin", "setting": "[5]", "result": 27.9, "unit": "°C"}, {"measurement": "Tm(+biotin)", "setting": "[5]", "result": "124.4 ± 0.2", "unit": "°C"}, {"measurement": "ΔH (unfolding enthalpy)", "setting": "[5]", "result": "126 ± 2.39", "unit": "kcal/mol"}, {"measurement": "Tm(−biotin)", "setting": "[5]", "result": "96.5 ± 0.2", "unit": "°C"}, {"measurement": "Activity: biotin-binding activity after 32 min treatment at 99.9° C.", "setting": "[6]", "result": 47, "unit": "%"}, {"measurement": "state after incubation with Proteinase K", "setting": "Proteinase K [7]", "result": "remaining intact"}, {"measurement": "kass, association rate constant", "setting": "[8]", "result": "(1.7 ± 0.1) × 10^4 M^−1s^−1"}, {"measurement": "biotin binding / dissociation rate in radiobiotin dissociation assay", "setting": "[1]", "result": "resembled AVR4/5(C122S)"}, {"measurement": "Release 1 h (total release of the probe)", "setting": "[9]; 25° C.", "result": 13.1, "unit": "%"}, {"measurement": "kdiss, dissociation rate constant", "setting": "[9]; 25° C.", "result": "1.76 10^−5 s^−1"}, {"measurement": "Release 1 h (total release of the probe)", "setting": "[9]; 50° C.", "result": 93.9, "unit": "%"}, {"measurement": "kdiss, dissociation rate constant", "setting": "[9]; 50° C.", "result": "8.00 10^−4 s^−1"}]}
{"molecule": "ChiAVD(I117Y): Residues 38-58 moved from AVR4/5 to avidin and mutation I117Y in 1-3 subunit interface (SEQ ID NO:16) (protein, listed as Gallus gallus) MVHATSPLLLLLLLSLALVAPGLSARKCSLTGKWTNDLGSNMTIGAVNSRGEFTGTYITAVADNPGNITLSPLLGIQHKRASQPTFGFTVNWKFSESTTVFTGQCFIDRNGKEVLKTMWLLRSSVNDIGDDWKATRVGYNIFTRLRTQKE", "values": [{"measurement": "Tm, transition midpoint of heat denaturation", "setting": "[5]", "result": 111.1, "unit": "°C"}, {"measurement": "ΔTm, change in Tm upon addition of a three-fold molar excess of biotin", "setting": "[5]", "result": "~19", "unit": "°C"}, {"measurement": "Tm(+biotin)", "setting": "[5]", "result": "~130^d ° C."}, {"measurement": "ΔH (unfolding enthalpy)", "setting": "[5]", "result": "158 ± 9.08", "unit": "kcal/mol"}, {"measurement": "Tm(−biotin)", "setting": "[5]", "result": "111.1 ± 0.2", "unit": "°C"}, {"measurement": "Activity: biotin-binding activity after 32 min treatment at 99.9° C.", "setting": "[6]", "result": 98, "unit": "%"}, {"measurement": "state after incubation with Proteinase K", "setting": "Proteinase K [7]", "result": "remaining intact"}, {"measurement": "kass, association rate constant", "setting": "[8]", "result": "(1.6 ± 0.2) × 10^4 M^−1s^−1"}, {"measurement": "biotin binding / dissociation rate in radiobiotin dissociation assay", "setting": "[1]", "result": "resembled AVR4/5(C122S)"}, {"measurement": "Release 1 h (total release of the probe)", "setting": "[9]; 25° C.", "result": 9.5, "unit": "%"}, {"measurement": "kdiss, dissociation rate constant", "setting": "[9]; 25° C.", "result": "1.94 10^−5 s^−1"}, {"measurement": "Release 1 h (total release of the probe)", "setting": "[9]; 50° C.", "result": 94.8, "unit": "%"}, {"measurement": "kdiss, dissociation rate constant", "setting": "[9]; 50° C.", "result": "7.33 10^−4 s^−1"}]}
{"molecule": "AVR4/5(C122S): AVR4/5 with the cysteine forming intermonomeric disulphide bridges mutated to serine; insect cell produced (protein, UniProt P56734 25-150, looked up, variant C122S) Avidin-related protein 4/5: ARKCSLTGKWTNNLGSIMTIRAVNSRGEFTGTYLTAVADNPGNITLSPLLGIQHKRASQPTFGFTVHWNFSESTTVFTGQCFIDRNGKEVLKTMWLLRSSVNDISYDWKATRVGYNNFTRLSTVEE", "values": [{"measurement": "Activity: biotin-binding activity after 32 min treatment at 99.9° C.", "setting": "[6]", "result": 72, "unit": "%"}, {"measurement": "resistance to the proteolytic activity of Proteinase K", "setting": "Proteinase K [7]; even without biotin", "result": "total resistance"}, {"measurement": "kass, association rate constant", "setting": "[8]", "result": "(9.3 ± 0.4) × 10^3 M^−1s^−1"}, {"measurement": "biotin binding / dissociation rate in radiobiotin dissociation assay", "setting": "[1]", "result": "tight biotin binding"}, {"measurement": "Release 1 h (total release of the probe)", "setting": "[9]; 25° C.", "result": 12.5, "unit": "%"}, {"measurement": "kdiss, dissociation rate constant", "setting": "[9]; 25° C.", "result": "2.77 10^−5 s^−1"}, {"measurement": "Release 1 h (total release of the probe)", "setting": "[9]; 50° C.", "result": 93.7, "unit": "%"}, {"measurement": "kdiss, dissociation rate constant", "setting": "[9]; 50° C.", "result": "7.88 10^−4 s^−1"}, {"measurement": "ΔH (unfolding enthalpy)", "setting": "[2]; DSC, sample without biotin, results from ref (8)", "result": "137 ± 7.89", "unit": "kcal/mol"}, {"measurement": "Tm(+biotin)", "setting": "[2]; DSC, with biotin, results from ref (8)", "result": "125.4 ± 0.8", "unit": "°C"}, {"measurement": "Tm(−biotin)", "setting": "[2]; DSC, without biotin, results from ref (8)", "result": "106.4 ± 0.8", "unit": "°C"}, {"measurement": "ΔTm, change in Tm upon addition of a three-fold molar excess of biotin", "setting": "[2]; DSC, results from ref (8)", "result": 19.5, "unit": "°C"}]}
{"molecule": "AVR4/5(C122S)-b: AVR4/5(C122S) produced in E. coli, non-glycosylated, three additional N-terminal residues (Gln-Thr-Val) (protein, UniProt P56734 25-150, looked up, variant C122S, N-terminal Gln-Thr-Val extension) Avidin-related protein 4/5: ARKCSLTGKWTNNLGSIMTIRAVNSRGEFTGTYLTAVADNPGNITLSPLLGIQHKRASQPTFGFTVHWNFSESTTVFTGQCFIDRNGKEVLKTMWLLRSSVNDISYDWKATRVGYNNFTRLSTVEE", "values": [{"measurement": "ΔTm, change in Tm upon addition of a three-fold molar excess of biotin", "setting": "[5]", "result": 17.2, "unit": "°C"}, {"measurement": "Tm(+biotin)", "setting": "[5]", "result": 127.1, "unit": "°C"}, {"measurement": "ΔH (unfolding enthalpy)", "setting": "[5]", "result": 110, "unit": "kcal/mol"}, {"measurement": "Tm(−biotin)", "setting": "[5]", "result": 109.9, "unit": "°C"}, {"measurement": "Activity: biotin-binding activity after 32 min treatment at 99.9° C.", "setting": "[6]", "result": 56, "unit": "%"}, {"measurement": "state after incubation with Proteinase K", "setting": "Proteinase K [7]", "result": "remaining intact"}, {"measurement": "biotin binding / dissociation rate in radiobiotin dissociation assay", "setting": "[1]", "result": "slightly slower dissociation rate"}, {"measurement": "Release 1 h (total release of the probe)", "setting": "[9]; 25° C.", "result": 10.9, "unit": "%"}, {"measurement": "kdiss, dissociation rate constant", "setting": "[9]; 25° C.", "result": "2.31 10^−5 s^−1"}, {"measurement": "Release 1 h (total release of the probe)", "setting": "[9]; 50° C.", "result": 88.3, "unit": "%"}, {"measurement": "kdiss, dissociation rate constant", "setting": "[9]; 50° C.", "result": "6.20 10^−4 s^−1"}]}
